Assay: label from the status in PepcDB records
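Note: failed if final PepcDB status was selected cloned or expressed and not failed if soluble or beyond.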

Row | Sequence | protein production
1 | MSLWQPLVLVLLVLGCCFAAPRQRQSTLVLFPGDLRTNLTDRQLAEEYLYRYGYTRVAEMRGESKSLGPALLLLQKQLSLPETGELDSATLKAMRTPRCGVPDLGRFQTFEGDLKWHHHNITYWIQNYSEDLPRAVIDDAFARAFALWSAVTPLTFTRVYSRDADIVIQFGVAEHGDGYPFDGKDGLLAHAFPPGPGIQGDAHFDDDELWSLGKGVVVPTRFGNADGAACHFPFIFEGRSYSACTTDGRSDGLPWCSTTANYDTDDRFGFCPSERLYTRDGNADGKPCQFPFIFQGQSYSACTTDGRSDGYRWCATTANYDRDKLFGFCPTRADSTVMGGNSAGELCVFPFTFLGKEYSTCTSEGRGDGRLWCATTSNFDSDKKWGFCPDQGYSLFLVAAHEFGHALGLDHSSVPEALMYPMYRFTEGPPLHKDDVNGIRHLYGPRPEPEPRPPTTTTPQPTAPPTVCPTGPPTVHPSERPTAGPTGPPSAGPTGPPTAGPSTATTVPLSPVDDACNVNIFDAIAEIGNQLYLFKDGKYWRFSEGRGSRPQGPFLIADKWPALPRKLDSVFEEPLSKKLFFFSGRQVWVYTGASVLGPRRLDKLGLGADVAQVTGALRSGRGKMLLFSGRRLWRFDVKAQMVDPRSASEVDRMFPGVPLDTHDVFQYREKAYFCQDRFYWRVSSRSELNQVDQVGYVTYDILQCPED | not failed
2 | MSLQVEGLSINLATIREQCGFAEAVDICLKHGITAIAPWRDQVAAIGLGEAGRIVRANGLKLTGLCRGGFFPAPDASGREKAIDDNRRAVDEAAELGADCLVLVAGGLPGGSKNIDAARRMVVEGIAAVLPHARAAGVPLAIEPLHPMYAADRACVNTLGQALDICETLGPGVGVAIDVYHVWWDPDLANQIARAGKMKAILAHHICDWLVPTKDMLTDRGMMGDGVIDLKGIRRRIEAAGFHGAQEVEIFSADNWWKRPADEVIATCVERYRNEGHHHHHH | not failed
3 | MENKKMNLLLFSGDYDKALASLIIANAAREMEIEVTIFCAFWGLLLLRDPEKASQEDKSLYEQAFSSLTPREAEELPLSKMNLGGIGKKMLLEMMKEEKAPKLSDLLSGARKKEVKFYACQLSVEIMGFKKEELFPEVQIMDVKEYLKNALESDLQLFI | not failed
4 | MKGLCSSDTRQYLPGHQLWEAPVQIRRYSAVIHHATKCQWGVIPSRTINVSLHQTRRMRVAAVGIGGAGGRIVERLWQDNERRETTYLGAACAVDTDTEALDELDALPADRRYAFGLSETNGTGTNGDRTSGTAAIEDERLEVRRAIDELVTSDIDAVVLVAGLAGGTGSGATAHIADALREVYSIPVYCLSVLPAGRDDDAAANTMQALRALESTVDGQILFDNEAWLGSGQTVESASETLNETIVARLGALFAAGEATAPDAVGQSVVDASEIINTLSDAGFTTLGYASQDLQTGAGSGDGTVIDQLKNRFLGDNADDVDEIEAYNAVETTLRRAVRGKLTAQCELDSADRALAVFAGPPAWLIRDAVTDGRRWLTEELQSPLEHHHHHH | failed
5 | MGKRLYAVAYDIPDDTRRVKLANLLKSYGERVQLSVFECYLDERLLEDLRRRARRLLDLGQDALRIYPVAGQVEVLGVGPLPELREVQVL | not failed
6 | MTPSISLITSYSLLPAILMLIGGGIASLYRPGGSITSATQHFAAGVVFAAVAKELLPKIGAYHDPLALIIGFSVGILAMLFLKWLANRLEDLEQEKTGLSWGLLTAVGIDLLIDGILIGVAFLAGERGGILIAIALAIEIFFLGLSTTATLGARQVNVPIRLLTSVILAILIPVGAALGASLLIHLPLSITNGILSFGVAALLYLVTEELLLEAHGVRETPYITLCFFIGFLLILLLEGLAA | failed
7 | LAAWHLSSADYIADTLRLQGMTARGQVLDFGGGIGTHALSAAALPQVDHVWFVDLNPHNQAFVEQRAAALGLSDKLSVHRDLESTGEVRFDTVVCLDVLEHLPDPSAQLQAFHQRMASDATALLNWYFFKGHDGEYPFHFDDPQ | failed
8 | MNWGEGEWNSFFHFFTKEFINMSESFKELFEQSIAGAQFYPGAIITAKVIDIDDDFVTLNAGLKSEGIVAVEEFYDKNGELEVKVGDTVEVALDSVEDGHGETLLSREKAKRQEAWRKLSKCHENNETVTGLISGKVKGGFTVEIGSIRAFLPGSLVDVRPVRDPSYLEGKELEFKVIKMDLKRNNIVVSRRAVVEEESSADRQALLESLHDGQELHGIVKNLTDYGAFIDLGGIDGLLHITDISWKRVKHPSEVLSVGQDVKVKVLSFDSERNRVSLGMKQLGNDPWVDLVERYPIGKRLQGKVTNITDYGCFVEIEEGVEGLVHMSEMDWTNKNVHPSKVVSLGDVVDVMVLEIDEERRRISLGMKQCVGNPWQQFASTHNKGEKVKGKIRSITDFGIFIGLDGDIDGLVHLSDISWTVPGEEAVKQFKKGQELEAVILAIDPERERISLGLKQLEGDSFASFAETYTKGSIVKGTVTAVEPKTVTVALAEDVSGTIRVSELSDERVDDATTIVKVGDEVEAKITNIDRKNRTISLSVKAKDAQDEADAIKKYSRTEAASTTLGDLLKEKMASKEGELEHHHHHH | not failed
9 | QSLELGTMQPSFTSVTGKGGVKVIDGSSVKFGRFDGAEPHCVGLTDLVTEQDGSSMAAGFMQWDNAFFPWTLNYDEIDMVLEGELHVRHEGETMIAKAGDVMFIPKGSSIEFGTPTSVRFLYVAWPANWQSV | not failed
10 | AIATVYRLPASISFDEVIQRVSRENVGAVVRCAVGEEQLVVATSHRQEAWTVLKSFLINRCVPMEAREEEPSLGLEKPQYWDRLPANGRTPMERSDHGRGLEFQKSSQDDPVFEKECLLSGYGAQAPSQTGTESLQIPQVALLEEPVPPAYLKKAENAAVSFCGLVRKDRLSSDRVVSALVYESYREMAMLYIHRIAAEQNLHMFVHTVAGSVPVGSVSVLVTGPSVESVRLALEALKRYVPIWKEDVSVPCI | failed
11 | SDFSRNLYDIGEQLDSEDLASLKFLSLDYIPQRKQEPIKDALMLFQRLQEKRMLEESNLSFLKELLFRINRLDLLITYLNTRKEEMERELQTPGRAQISAYRVMLYQISEEVSRSELRSFKFLLQEEISKCKLDDDMNLLDIFIEMEKRVILGEGKLDILKRVCAQINKSLLKIINDYEEFSKGEELCGVMTISDSPREQDSESQTLDKVYQMKSKPRGYCLIINNHNFAKAREKVPKLHSIRDRNGTHLDAGSHSVAQAGVQWCDLGSLQPPPPWFG | not failed
12 | MFGKLLKKEIKELLNLGAIVSVIVVAVLYGSLGNVFKSTVEKSTVGQKVAIVREDTGTIAELAEKALGNMVDIVYAGSDLKEAEEAVKKEKAPAIIVIPKGFSQSLESGEKARLEIVWYLRGTGLSEAVSTGTISSLIESLKVQLASFLLNDPKKAQLLFDPLEIVQHTYLRGSLFKNHSPEAIMNVFYSQNIMIPILIMMLIIMSGSSLISSLAMEKENKTLETLLTMPVKREHIALAKIVGSAIVGLILAGIYMAGFYSYLNSLTQNVQGMGLNFKAVDFLLMGSSLFLSILAGLSLCMLLGMMAKDYRSAQLLTFPISILALVPMIANMIMDFSNLPGVLKVIVFLIPFSHPIMSPKLAFYGDYGLIVSGILYLLIFSIVTTVFVFRIFNSDYVVLGWQREKRLKFFSR | failed
13 | MLVCYSVLACEILWDLPCSIMGSPLGHFTWDKYLKETCSVPAPVHCFKQSYTPPSNEFKISMKLEAQDPRNTTSTCIATVVGLTGARLRLRLDGSDNKNDFWRLVDSAEIQPIGNCEKNGGMLQPPLGFRLNASSWPMFLLKTLNGAEMAPIRIFHKEPPSPSHNFFKMGMKLEAVDRKNPHFICPATIGEVRGSEVLVTFDGWRGAFDYWCRFDSRDIFPVGWCSLTGDNLQPPGTKVVIPKNPYPASDVNTEKPSIHSSTKTVLEHQPGQRGRKPGKKRGRTPKTLISHPISAPSKTAEPLKFPKKRGPKPGSKRKPRTLLNPPPASPTTSTPEPDTSTVPQDAATIPSSAMQAPTVCIYLNKNGSTGPHLDKKKVQQLPDHFGPARASVVLQQAVQACIDCAYHQKTVFSFLKQGHGGEVISAVFDREQHTLNLPAVNSITYVLRFLEKLCHNLRSDNLFGNQPFTQTHLSLTAIEYSHSHDRYLPGETFVLGNSLARSLEPHSDSMDSASNPTNLVSTSQRHRPLLSSCGLPPSTASAVRRLCSRGVLKGSNERRDMESFWKLNRSPGSDRYLESRDASRLSGRDPSSWTVEDVMQFVREADPQLGPHADLFRKHEIDGKALLLLRSDMMMKYMGLKLGPALKLSYHIDRLKQGKF | failed
14 | VAARPPALCKGCSHRDVYDALNEVLTEYPNGRVFSDIGCYTLGALPPYEAINSCVDMGASITMAKGAADAGLFPAVSVIGDSTFTHSGITGLLDAINENSNITVIISDNESISMTGGQHSSAYGKVEAICRGIGVDPDHIRELLPVPKNHDELCSIIREEINYEGVSVIIPRRVCIQKHARDAKAAKRAKAKE | failed
15 | MSASAHIAQPDTRQQSRSDTPQAVAALAGRVLLSAIFLLSGVSKLAAPAMMIGYIGSVGLPFPQLALALAVIVEIGGGLALVAGWRTRTVAALLALFSVVTALAFHNALGDQNQFIHFFKNLAMAGGLLQVVAFGAGRFSLDARRR | failed
16 | MSTIEERTPGAVATEPVGHEGARVSINEKNVWSLGAGPAAFALLAMIVLMIASGVFFAQSINTLENDGGGTLAVTGLIASIVVFTVALVVTITSVKVVSPGHTLTVQFFGRYIGTLRRTGLSFVPPLSVTKKVSVRVRNFETNEAKVNDYNGNPINIAAIIVWQVADTAQASFSVEDFEEFLHQQAESALRHVATQHPYDSPVDGRVSLRGATDEVSEELADEVAQRAAVAGLEIVEARISSLSYAPEIAQAMLQRQQASAIVDAREKIVEGAVTMVETALDQLEQREIVDLDPERRAAMVSNLLVVLCSDTNAQPIVNAGSLYQ | failed
17 | MLKLHLSEEERVIFASNLVASKKRFTKMEKGRFGNFLDNAKIISHIINPCLYDVEDATGYFLYSFTLNDERPK | failed
18 | SLDVQRVGKAGLHRVDSKKQQTAAGVSFSEVMGKQRDEKAYERLQALMSKIDDQGKLLSETRTIEELRKYKELVKEFVGDAVELGLRLEERRGFNRRGRTKIYKIVKEVDRKLLDLTDAVLAKEKKGLDILNMVGEIKGLLINIYA | not failed
19 | VEGPCEAKIECSDNGDGTCSVSYLPTKPGEYFVNILFEEVHIPGSPFKADIEMPFDPSKVVASGPGLEHGKVGEAGLLSVNCSEAGPGALGLEAVSDSGTKAEVSIQNNKDGTYAVTYVPLTAGMYTLTMKYGGELVPHFPARVKVEPAVDTSRIKVFGPGIEGKDVFREATTDFTVDSRPLTQVGGDHIKAHIANPSGASTECFVTDNADGTYQVEYTPFEKGLHVVEVTYDDVPIPNSPFKVAVTEGCQPSRVQAQGPGLKEAFTNKPNVFTVVTRGAGIGGLGITVEGPSESKINCRDNKDGSCSAEYIPFAPGDYDVNITYGGAHIPGSPFR | failed
20 | MVSYKILSVANKLKNIRDKYGLSQEDLAGNEITRNLISQIEHNKANLTRSAAEIMLKNLKKICDKKNVQVDEDINYLMEDEKSQAIKVLDKYIDDLRDLTIYKDNVFINKLREVEDFLVTWDFRDKKITIFELAGDYFSSTNDFYNASLYYEKAKALIDINIYSDNIVHILRKLSMTYYYMLRYQDDINCCEFALKQFKNMDEEYRCIFLFNSSLCYGQLKKYDLALKRLNEVESIIKNIDQNKYYEVLIQKAICYQWMKEYQKSLDIYNKLLESIDKSDYEKYLFILVNSSDIYVENSNFEKAESNLRIILENINNLNESSTLLPSTYLEMSRILKKLGYTKDAELYCLKSLNYAKRNTHYYLVNDIYGELLDIYKTLNVPEKVQTIKDEFFSNSSRDKNLNSKLMFKLLDFYFATNDIHSIKEIYDFSKNFIQERMINLCY | failed
21 | MQKKTQKLTVYVIVGLLIISLVGTSFMFLGDMRPTVGKNYQDQINSLKQALEANPQDTQTRLALADTYYDWGMQTLSQDMAEENLATTTSILQQAVTEYQEVLKTEKNVNILVDMATAAFYTSQNELADQTFQEALQEDPNFYNGLYNYGVFLYSQGDYGKAIEQWEKALALENISTDDKERLERNIKLAQDGIVQQFQQPENGDSSDANAEAK | failed

From a protein production outcome set (Wang et al. 2014)
